The record followed here is publication PMC4402148.

This data set addresses DDX3X D1 WT (Homo sapiens, UniProt O00571 135-407). Briefly: NMR CSP.

DDX3X D1 WT, sequence (O00571 135-407): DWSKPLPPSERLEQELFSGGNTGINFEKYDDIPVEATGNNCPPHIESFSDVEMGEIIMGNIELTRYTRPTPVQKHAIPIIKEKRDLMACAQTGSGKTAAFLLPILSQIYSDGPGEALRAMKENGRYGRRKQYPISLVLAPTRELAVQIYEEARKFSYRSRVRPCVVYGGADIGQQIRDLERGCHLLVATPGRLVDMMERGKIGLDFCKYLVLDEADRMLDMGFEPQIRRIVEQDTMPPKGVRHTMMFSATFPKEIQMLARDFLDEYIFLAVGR

B1: blunt 14-mer dsRNA (NMR) (dsRNA)
RNA 1: GGGCGGGCCCGCCC
RNA 2: GGGCGGGCCCGCCC
For B1, the binding result is on record as “binds”.
